Source: patent US20220291215A1 (published 2022)

Key:
Assay in all cases: multimer staining
[1] = target: T1, CCND1 peptide on HLA-DPA1*01:03 / HLA-DPB1*04:01 (human)
T1 peptide: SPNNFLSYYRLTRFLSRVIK

[2] = target: T2, HSD17B12 peptide on HLA-DPA1*01:03 / HLA-DPB1*04:01 (human)
T2 peptide: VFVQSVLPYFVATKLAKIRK

[3] = target: T3, LGSN peptide on HLA-DPA1*01:03 / HLA-DPB1*04:01 (human)
T3 peptide: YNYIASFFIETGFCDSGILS

[4] = target: T4, MAGE-A2 peptide on HLA-DPA1*01:03 / HLA-DPB1*04:01 (human)
T4 peptide: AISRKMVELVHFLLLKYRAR

[5] = target: T5, MUC5AC peptide on HLA-DPA1*01:03 / HLA-DPB1*04:01 (human)
T5 peptide: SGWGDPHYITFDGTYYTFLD

[6] = target: T6, LY6K peptide on HLA-DRA*01:01 / HLA-DRB1*01:01 (human)
T6 peptide: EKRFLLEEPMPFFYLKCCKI

B1: 03-CCND1219-238 (TCR)
alpha TRAV2*01 TRAJ21*01 CDR3: CAVCTLYNFNKFYF
beta TRBV6-5*01 TRBJ2-1*01 CDR3: CASLTDNNEQFF
[1]
  binding result: recognises

B2: 05-HSD17B12225-244 (TCR)
alpha TRAV22*01 TRAJ18*01 CDR3: CAVAPYDRGSTLGRLYF
beta TRBV19*01 TRBJ2-5*01 CDR3: CASSTGQGLETQYF
[2]
  binding result: recognises

B3: 05-LGSN296-315 (TCR)
alpha TRAV9-2*03 TRAJ32*01 CDR3: CALSDLSYGGATNKLIF
beta TRBV27*01 TRBJ1-5*01 CDR3: CASSKGQGLGNQPQHF
[3]
  binding result: recognises

B4: 03-MAGE-A2108-127 (TCR)
alpha TRAV36/DV7*04 TRAJ40*01 CDR3: CAVEVNSGTYKYIF
beta TRBV2*01 TRBJ1-1*01 CDR3: CASRRDLAAFF
[4]
  binding result: recognises

B5: 06-MAGE-A2108-127 (TCR)
alpha TRAV19*01 TRAJ40*01 CDR3: CALSVGTYKYIF
beta TRBV7-9*01 TRBJ2-5*01 CDR3: CASSPGTGGRETQYF
[4]
  binding result: recognises

B6: 05-MUC5AC4922-4941 (TCR)
Valpha: QTVTQSQPEMSVQEAETVTLSCTYDTSESNYYLFWYKQPPSRQMILVIRQEAYKQQNATENRFSVNFQKAAKSFSLKISDSQLGDTAMYFCAFMKRAETSGSRLTFGEGTQLTVNP
beta TRBV6-2*01 TRBJ2-5*01 CDR3: CASSYWPTRETQYF
[5]
  binding result: recognises

B7: DR1-08-LY6K99-118 (TCR)
alpha TRAV38-2/DV8*01 TRAJ52*01 CDR3: CAYRSFLNAGGTSYGKLTF
beta TRBV20-1*01 TRBJ1-6*01 CDR3: CAASRESKWSSYNSPLHF
[6]
  binding result: recognises
